What was measured:
Assay in all cases: turbidimetry of self-assembly
[1] = biological target: HIV-1 capsid protein CA mutant V165A (HIV-1 (strain BH10))
[2] = biological target: HIV-1 capsid protein CA mutant Q63A (HIV-1 (strain BH10))
[3] = biological target: HIV-1 capsid protein CA mutant E45A (HIV-1 (strain BH10))
[4] = biological target: HIV-1 capsid protein CA mutant P38A (HIV-1 (strain BH10))
[5] = biological target: HIV-1 capsid protein CA mutant S178A (HIV-1 (strain BH10))
[6] = biological target: HIV-1 capsid protein CA mutant E180A (HIV-1 (strain BH10))
[7] = biological target: HIV-1 capsid protein CA mutant Q192A (HIV-1 (strain BH10))

In the case of “HIV-1 capsid protein CA mutant V165A (natural protein)”, the growth rate constant kg relative to wt [1] is reported as 28 fold of wt and the nucleation rate constant kn relative to wt [1] is reported as > 100 fold of wt.
“HIV-1 capsid protein CA mutant Q63A (natural protein)” was tested, and the growth rate constant kg relative to wt [2] was 0.6 fold of wt.
For “HIV-1 capsid protein CA mutant E45A (natural protein)”, the growth rate constant kg relative to wt [3] was 11.5 fold of wt.
“HIV-1 capsid protein CA mutant P38A (natural protein)” was tested, and the growth rate constant kg relative to wt [4] was 18.5 fold of wt.
For “HIV-1 capsid protein CA mutant S178A (natural protein)”, the growth rate constant kg relative to wt [5] was 5.6 fold of wt.
In the case of “HIV-1 capsid protein CA mutant E180A (natural protein)”, the growth rate constant kg relative to wt [6] is reported as 0.8 fold of wt.
In the case of “HIV-1 capsid protein CA mutant Q192A (natural protein)”, the growth rate constant kg relative to wt [7] is reported as 2.7 fold of wt.
